Target: SET-26::GFP, excessively sumoylated (from F2 ulp-2(tv380) or ulp-2(RNAi) animals) (C. elegans) (UniProt Q9U263)
Test: co-IP; anti-GFP immunoprecipitation of SET-26::GFP from whole-worm lysates (1% PFA, sonicated), blot with anti-H3K4me3; WT and F2 ulp-2(tv380) backgrounds; 3 biological replicates

UniProt Q9U263, sequence (Q9U263 whole entry): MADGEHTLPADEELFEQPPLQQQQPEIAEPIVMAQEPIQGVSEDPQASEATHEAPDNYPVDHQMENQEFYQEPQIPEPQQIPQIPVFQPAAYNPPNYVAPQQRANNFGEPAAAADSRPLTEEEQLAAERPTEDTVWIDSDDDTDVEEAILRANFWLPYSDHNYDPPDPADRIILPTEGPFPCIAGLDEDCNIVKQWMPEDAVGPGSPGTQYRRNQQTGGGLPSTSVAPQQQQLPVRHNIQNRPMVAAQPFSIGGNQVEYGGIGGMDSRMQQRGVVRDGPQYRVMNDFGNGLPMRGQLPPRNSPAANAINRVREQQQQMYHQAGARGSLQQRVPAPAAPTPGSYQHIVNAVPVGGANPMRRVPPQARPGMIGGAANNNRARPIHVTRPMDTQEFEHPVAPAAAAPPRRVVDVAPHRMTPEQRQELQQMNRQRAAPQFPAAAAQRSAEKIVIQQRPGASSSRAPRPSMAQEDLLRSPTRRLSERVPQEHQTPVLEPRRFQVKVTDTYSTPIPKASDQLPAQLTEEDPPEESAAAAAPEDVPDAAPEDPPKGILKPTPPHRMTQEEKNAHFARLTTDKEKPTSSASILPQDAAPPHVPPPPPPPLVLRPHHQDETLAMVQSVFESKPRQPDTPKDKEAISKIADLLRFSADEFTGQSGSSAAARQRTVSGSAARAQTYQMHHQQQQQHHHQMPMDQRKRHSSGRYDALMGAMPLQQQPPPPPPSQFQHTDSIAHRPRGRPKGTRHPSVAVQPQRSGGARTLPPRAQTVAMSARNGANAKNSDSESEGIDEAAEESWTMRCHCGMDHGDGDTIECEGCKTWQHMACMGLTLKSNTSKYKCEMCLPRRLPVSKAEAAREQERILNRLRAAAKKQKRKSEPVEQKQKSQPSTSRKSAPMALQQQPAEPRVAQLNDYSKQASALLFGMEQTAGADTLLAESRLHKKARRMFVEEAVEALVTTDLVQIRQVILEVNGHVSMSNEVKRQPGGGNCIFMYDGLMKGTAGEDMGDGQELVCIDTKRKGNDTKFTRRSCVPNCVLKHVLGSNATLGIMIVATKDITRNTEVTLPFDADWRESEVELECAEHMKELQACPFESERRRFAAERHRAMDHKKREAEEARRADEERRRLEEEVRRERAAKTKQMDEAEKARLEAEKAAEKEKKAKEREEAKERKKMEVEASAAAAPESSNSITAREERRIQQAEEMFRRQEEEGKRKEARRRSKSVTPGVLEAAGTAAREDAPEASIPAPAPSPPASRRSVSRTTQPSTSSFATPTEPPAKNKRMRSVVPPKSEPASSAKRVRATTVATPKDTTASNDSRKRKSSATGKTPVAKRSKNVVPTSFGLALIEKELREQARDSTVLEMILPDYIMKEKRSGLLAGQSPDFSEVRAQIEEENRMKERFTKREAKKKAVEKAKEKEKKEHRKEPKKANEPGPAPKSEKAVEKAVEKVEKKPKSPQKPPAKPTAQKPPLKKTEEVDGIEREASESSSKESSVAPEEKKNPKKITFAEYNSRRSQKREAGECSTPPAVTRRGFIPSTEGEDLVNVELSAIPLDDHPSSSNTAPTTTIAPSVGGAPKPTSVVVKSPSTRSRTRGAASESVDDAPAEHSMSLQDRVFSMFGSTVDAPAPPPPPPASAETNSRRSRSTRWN

reduction of binding compared with WT: 55%
Substance: Histone H3 tri-methylated at lysine 4 (H3K4me3) (from UniProt P08898 1-136) (natural protein)

— paper PMC11703099
